This note sets out measurements from IntAct's records for PubMed 35512704.

B1: Mothers against decapentaplegic homolog 4 (Homo sapiens), Q13485 (parent)
chain: MDNMSITNTPTSNDACLSIVHSLMCHRQGGESETFAKRAIESLVKKLKEKKDELDSLITAITTNGAHPSKCVTIQRTLDGRLQVAGRKGFPHVIYARLWRWPDLHKNELKHVKYCQYAFDLKCDSVCVNPYHYERVVSPGIDLSGLTLQSNAPSSMMVKDEYVHDFEGQPSLSTEGHSIQTIQHPPSNRASTETYSTPALLAPSESNATSTANFPNIPVASTSQPASILGGSHSEGLLQIASGPQPGQQQNGFTGQPATYHHNSTTTWTGSRTAPYTPNLPHHQNGHLQHHPPMPPHPGHYWPVHNELAFQPPISNHPAPEYWCSIAYFEMDVQVGETFKVPSSCPIVTVDGYVDPSGGDRFCLGQLSNVHRTEAIERARLHIGKGVQLECKGEGDVWVRCLSDHAVFVQSYYLDREAGRAPGDAVHKIYPSAYIKVFDLRQCHRQMQQQAATAQAAAAAQAAAVAGNIPGPGSVGGIAPAISLSAAAGIGVDDLRRLCILRMSFVKGWGPDYPRQSIKETPCWIEIHLHRALQLLDEVLHTMPIADPQPLD
partner: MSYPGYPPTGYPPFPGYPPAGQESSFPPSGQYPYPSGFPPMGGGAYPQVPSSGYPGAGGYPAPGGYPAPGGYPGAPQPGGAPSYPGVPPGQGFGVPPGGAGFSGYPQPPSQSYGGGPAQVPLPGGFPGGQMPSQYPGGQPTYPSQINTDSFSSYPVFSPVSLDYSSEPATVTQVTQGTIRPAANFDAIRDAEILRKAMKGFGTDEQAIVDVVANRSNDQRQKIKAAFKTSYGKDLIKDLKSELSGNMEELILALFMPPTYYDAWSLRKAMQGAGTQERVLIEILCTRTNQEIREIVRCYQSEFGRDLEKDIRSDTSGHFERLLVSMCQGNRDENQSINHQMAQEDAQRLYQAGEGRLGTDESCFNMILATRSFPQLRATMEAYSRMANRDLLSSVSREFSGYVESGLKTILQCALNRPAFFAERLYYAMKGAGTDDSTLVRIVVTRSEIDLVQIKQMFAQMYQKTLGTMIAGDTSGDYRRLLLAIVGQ
B2: Mothers against decapentaplegic homolog 4 (Homo sapiens), Q13485 (parent)
chain: B1 chain
partner: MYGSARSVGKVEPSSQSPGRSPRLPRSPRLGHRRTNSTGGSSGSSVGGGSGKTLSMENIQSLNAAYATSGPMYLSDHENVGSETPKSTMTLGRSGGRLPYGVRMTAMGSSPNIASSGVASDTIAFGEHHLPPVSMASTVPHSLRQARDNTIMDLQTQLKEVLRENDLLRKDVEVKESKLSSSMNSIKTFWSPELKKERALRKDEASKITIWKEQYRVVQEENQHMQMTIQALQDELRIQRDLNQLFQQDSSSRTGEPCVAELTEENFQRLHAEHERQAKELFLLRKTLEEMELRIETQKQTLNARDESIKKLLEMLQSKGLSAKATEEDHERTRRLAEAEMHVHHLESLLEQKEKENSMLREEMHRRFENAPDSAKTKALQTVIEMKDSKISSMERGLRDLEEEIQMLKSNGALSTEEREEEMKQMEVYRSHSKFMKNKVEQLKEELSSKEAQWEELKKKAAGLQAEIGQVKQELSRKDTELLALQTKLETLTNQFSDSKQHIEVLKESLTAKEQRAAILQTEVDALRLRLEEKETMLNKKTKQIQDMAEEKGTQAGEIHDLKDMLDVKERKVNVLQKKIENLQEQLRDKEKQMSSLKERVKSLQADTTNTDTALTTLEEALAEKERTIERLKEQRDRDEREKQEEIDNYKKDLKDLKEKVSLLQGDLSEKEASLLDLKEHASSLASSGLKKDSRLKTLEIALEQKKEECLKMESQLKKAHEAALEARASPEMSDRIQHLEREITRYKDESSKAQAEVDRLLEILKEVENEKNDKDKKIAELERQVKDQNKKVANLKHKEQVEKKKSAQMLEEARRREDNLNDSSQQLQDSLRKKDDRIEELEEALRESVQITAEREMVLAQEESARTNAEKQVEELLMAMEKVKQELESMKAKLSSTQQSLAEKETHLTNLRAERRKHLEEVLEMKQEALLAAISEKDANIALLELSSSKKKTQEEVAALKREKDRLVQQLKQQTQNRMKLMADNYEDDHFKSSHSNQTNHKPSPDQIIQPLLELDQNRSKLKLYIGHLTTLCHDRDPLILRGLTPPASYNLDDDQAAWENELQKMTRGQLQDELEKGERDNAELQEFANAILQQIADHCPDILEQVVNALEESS
B3: Mothers against decapentaplegic homolog 4 (Homo sapiens), Q13485 (parent)
chain: B1 chain
partner: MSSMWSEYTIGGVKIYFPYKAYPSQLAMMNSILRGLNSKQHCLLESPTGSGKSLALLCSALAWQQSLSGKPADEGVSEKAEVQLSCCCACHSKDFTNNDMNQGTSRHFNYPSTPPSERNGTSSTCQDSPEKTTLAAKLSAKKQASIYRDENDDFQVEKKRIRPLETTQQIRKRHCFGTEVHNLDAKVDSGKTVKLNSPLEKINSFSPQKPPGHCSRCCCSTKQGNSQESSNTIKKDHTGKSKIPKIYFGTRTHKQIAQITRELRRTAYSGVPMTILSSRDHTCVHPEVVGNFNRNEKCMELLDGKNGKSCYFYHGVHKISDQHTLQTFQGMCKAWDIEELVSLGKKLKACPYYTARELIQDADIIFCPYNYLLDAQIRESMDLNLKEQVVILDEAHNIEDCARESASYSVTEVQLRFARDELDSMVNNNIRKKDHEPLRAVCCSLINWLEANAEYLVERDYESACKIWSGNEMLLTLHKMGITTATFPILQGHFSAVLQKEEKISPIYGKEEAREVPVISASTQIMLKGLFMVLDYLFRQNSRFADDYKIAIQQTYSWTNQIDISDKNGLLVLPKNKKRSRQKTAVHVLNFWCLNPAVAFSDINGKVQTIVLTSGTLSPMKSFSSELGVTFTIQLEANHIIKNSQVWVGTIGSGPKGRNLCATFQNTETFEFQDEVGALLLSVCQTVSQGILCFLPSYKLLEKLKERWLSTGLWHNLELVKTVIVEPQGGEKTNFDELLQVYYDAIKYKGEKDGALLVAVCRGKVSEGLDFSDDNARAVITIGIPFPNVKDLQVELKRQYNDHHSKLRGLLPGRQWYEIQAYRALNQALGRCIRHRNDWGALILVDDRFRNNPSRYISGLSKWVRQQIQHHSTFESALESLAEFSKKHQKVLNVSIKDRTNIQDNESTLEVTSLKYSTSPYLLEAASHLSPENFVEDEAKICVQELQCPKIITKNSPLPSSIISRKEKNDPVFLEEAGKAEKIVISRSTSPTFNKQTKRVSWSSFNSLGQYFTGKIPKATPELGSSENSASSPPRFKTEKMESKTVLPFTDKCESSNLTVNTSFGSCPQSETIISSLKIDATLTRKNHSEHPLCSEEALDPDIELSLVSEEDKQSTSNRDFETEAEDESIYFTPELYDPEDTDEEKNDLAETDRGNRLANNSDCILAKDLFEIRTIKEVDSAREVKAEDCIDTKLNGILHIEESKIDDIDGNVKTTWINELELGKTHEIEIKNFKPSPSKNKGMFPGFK
B4: Mothers against decapentaplegic homolog 4 (Homo sapiens), Q13485 (parent)
chain: B1 chain
partner: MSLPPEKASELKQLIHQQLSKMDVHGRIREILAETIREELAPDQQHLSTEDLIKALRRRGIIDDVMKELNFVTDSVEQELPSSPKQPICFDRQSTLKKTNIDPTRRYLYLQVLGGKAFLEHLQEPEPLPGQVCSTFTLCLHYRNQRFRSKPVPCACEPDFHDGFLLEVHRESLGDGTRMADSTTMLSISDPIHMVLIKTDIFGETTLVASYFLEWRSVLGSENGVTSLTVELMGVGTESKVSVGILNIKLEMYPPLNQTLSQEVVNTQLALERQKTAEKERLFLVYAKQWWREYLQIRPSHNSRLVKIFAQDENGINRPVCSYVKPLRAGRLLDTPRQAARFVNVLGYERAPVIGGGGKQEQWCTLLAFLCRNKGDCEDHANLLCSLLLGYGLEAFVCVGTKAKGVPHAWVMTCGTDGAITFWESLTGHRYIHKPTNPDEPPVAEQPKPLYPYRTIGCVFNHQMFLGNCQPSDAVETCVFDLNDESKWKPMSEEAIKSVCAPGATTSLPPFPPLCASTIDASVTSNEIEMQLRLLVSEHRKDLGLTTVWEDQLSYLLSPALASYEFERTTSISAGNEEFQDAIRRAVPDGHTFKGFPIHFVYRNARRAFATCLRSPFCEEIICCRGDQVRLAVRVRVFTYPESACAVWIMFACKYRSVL

The variants in the first assay derive from B1. The conditions noted are these: with anxa7_human ANXA7, P20073.
For the variant G386D, the “effect of a mutation on the interaction” value is given as “with no effect”.

Another assay covers variants of B1. The settings on record: with anxa7_human ANXA7, P20073. This is another data set of the same source.
Consider D351H, for which the “effect of a mutation on the interaction” value was “with no effect”.

The variants in another assay derive from B1. The conditions noted are these: with anxa7_human ANXA7, P20073. The source holds these as a separate data set.
Turning to R361H, the “effect of a mutation on the interaction” value is given as “with no effect”.

The variants in a further assay derive from B1. The settings on record: with anxa7_human ANXA7, P20073. The source holds these as a separate data set.
Take R361C: the “effect of a mutation on the interaction” value is “with no effect”.

Variants of B2 are the subject of a further assay. The settings on record: with rb6i2_human ERC1, Q8IUD2.
As to G386D, the “effect of a mutation on the interaction” value is recorded as “with no effect”.

The variants in another assay derive from B2. The settings on record: with rb6i2_human ERC1, Q8IUD2. This is another data set of the same source.
D351H: the “effect of a mutation on the interaction” value is given as “with no effect”.

Variants of B2 are the subject of a further assay. The settings on record: with rb6i2_human ERC1, Q8IUD2. The source holds these as a separate data set.
R361C: the “effect of a mutation on the interaction” value is on record as “with no effect”.

In another assay the parent is B2. The conditions noted are these: with rb6i2_human ERC1, Q8IUD2. This is another data set of the same source.
For the variant R361H, the “effect of a mutation on the interaction” value was “with no effect”.

Variants of B3 are the subject of a further assay. The settings on record: with fancj_human BRIP1, Q9BX63.
As to D351H, the “effect of a mutation on the interaction” value is “with no effect”.

The next assay covers variants of B3. The conditions noted are these: with fancj_human BRIP1, Q9BX63. This is another data set of the same source.
Take G386D: the “effect of a mutation on the interaction” value was “with no effect”.

Variants of B4 are the subject of a further assay. The conditions noted are these: with cep76_human CEP76, Q8TAP6.
In the case of R361H, the “effect of a mutation on the interaction” value is given as “with no effect”.

In the next assay the parent is B4. The settings on record: with cep76_human CEP76, Q8TAP6. The source holds these as a separate data set.
In the case of R361C, the “effect of a mutation on the interaction” value is given as “with no effect”.

In a further assay the parent is B4. The settings on record: with cep76_human CEP76, Q8TAP6. This is another data set of the same source.
Turning to D351H, the “effect of a mutation on the interaction” value is reported as “with no effect”.
